Legend:
human BAFF [1] = target: T1, human BAFF (human, UniProt Q9Y275 134-285, limits assumed); assay: cell-based or functional assay
[2] = target: Recombinant cynomolgus BAFF trimer (Boehringer Ingelheim Pharmaceuticals, Inc.) (cynomolgus, UniProt A0A2K5V2X4 134-285); assay: cell-based or functional assay
cynomolgus BAFF = target: T2, cynomolgus BAFF (cynomolgus, UniProt A0A2K5V2X4 134-285); assay: SPR (ProteOn XPR36), compound captured on goat anti-human IgG Fc, antigen injected
T2 construct: construct not described
Experimental: (§1) SPR experiments were performed on a ProteOn XPR36 instrument (Bio Rad). A GLM chip was preconditioned with sequential injections of 60 sec of 0.5% SDS, 50 mM NaOH, and 100 mM HCl at a flow rate of 30 μl/min both vertical and horizontal directions.
(§2) The preconditioned GLM chip was then activated by an injection of EDC (76.7 mg/ml) and sulfo-NHS (21.7 mg/ml) mixture with ratio of 1:1 in 6 horizontal channels. Goat-anti-human IgG (GAHA) Fc gamma (Invitrogen) at a concentration of 30 μg/ml in 10 mM, pH 5.0 sodium acetate buffer was immobilized to 8,000 resonance units on the activated GLM chip in 6 horizontal channels. The chip was finally deactivated with 1 M ethanolamine HCl in 6 horizontal channels. The prepared GAHA chip was rotated to vertical direction to capture test compounds, over 5 vertical channels and the last channel was used as a column reference. The captured chip was then rotated again to the horizontal direction for binding. […] The dissociation was allowed for 2 hour. The GAHA surface was regenerated using short pulse injection (18 seconds) of 0.85% phosphoric acid (Bio Rad) at a flow rate of 100 μl/min both horizontal and vertical directions after 10 min association and 2 hr dissociation. The regenerated GAHA was ready for another binding cycle.

cynomolgus IL-23 [3] = target: T3, cynomolgus IL-23 (cynomolgus, UniProt H6WS56 20-189); assay: as above
Experimental: as §1, §2

[4] = target: T4, Linked human IL-23 (Boehringer Ingelheim Pharmaceuticals, Inc.) (human, UniProt P29460 23-328); assay: as above
T4 sequence 1: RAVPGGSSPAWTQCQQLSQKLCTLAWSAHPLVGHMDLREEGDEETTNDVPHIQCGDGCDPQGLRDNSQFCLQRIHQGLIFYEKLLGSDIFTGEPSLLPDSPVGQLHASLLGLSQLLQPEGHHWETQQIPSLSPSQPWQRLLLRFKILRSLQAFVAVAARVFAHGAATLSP
T4 sequence 2: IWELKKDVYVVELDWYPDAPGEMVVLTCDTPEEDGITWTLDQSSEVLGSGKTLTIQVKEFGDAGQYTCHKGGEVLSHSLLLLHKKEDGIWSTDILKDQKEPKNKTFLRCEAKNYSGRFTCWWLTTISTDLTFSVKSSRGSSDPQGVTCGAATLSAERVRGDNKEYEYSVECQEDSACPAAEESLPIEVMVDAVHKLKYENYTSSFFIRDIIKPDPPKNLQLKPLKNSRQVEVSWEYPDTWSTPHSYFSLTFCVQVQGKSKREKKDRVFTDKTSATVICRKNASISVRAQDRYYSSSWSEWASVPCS
Experimental: as §1, §2

human BAFF [5] = target: T1, human BAFF; assay: as above
Experimental: as §1, §2

Recombinant human IL-23 [6] = target: T5, Recombinant human IL-23 (human, UniProt P29460 23-328); assay: cell-based or functional assay
T5 sequence 1: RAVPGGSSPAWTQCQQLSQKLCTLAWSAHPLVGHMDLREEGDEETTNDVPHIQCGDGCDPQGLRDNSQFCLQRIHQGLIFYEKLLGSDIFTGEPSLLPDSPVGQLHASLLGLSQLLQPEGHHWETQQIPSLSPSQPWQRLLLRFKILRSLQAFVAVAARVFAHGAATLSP
T5 sequence 2: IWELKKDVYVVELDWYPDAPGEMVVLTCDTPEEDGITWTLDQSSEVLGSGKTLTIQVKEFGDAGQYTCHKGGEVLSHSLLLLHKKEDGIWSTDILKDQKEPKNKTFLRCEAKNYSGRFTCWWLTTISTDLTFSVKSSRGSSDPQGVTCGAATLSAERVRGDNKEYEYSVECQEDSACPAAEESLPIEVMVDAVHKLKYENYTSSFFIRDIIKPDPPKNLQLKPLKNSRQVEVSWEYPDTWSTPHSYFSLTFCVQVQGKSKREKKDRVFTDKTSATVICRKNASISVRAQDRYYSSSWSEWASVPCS

[7] = target: T6, Recombinant human BAFF trimer (Boehringer Ingelheim Pharmaceuticals, Inc.) (human, UniProt Q9Y275 134-285, limits assumed); assay: cell-based or functional assay
Recombinant human IL-23 [8] = target: T5, Recombinant human IL-23; assay: BLI (Octet RED96, streptavidin tips), compound incubated 48 h at 37 C in whole blood vs kinetic buffer
Experimental: (§3) A whole blood interference assay was developed on an Octet RED96 to detect the effects of non-specific binding or off-target binding for compounds in the presence of whole blood (WB). The compound solutions in whole blood and 1× kinetic running buffer (1×kb) were incubated at a temperature of 37° C. for 48 hours. Kinetic measurements for the incubated compound samples were performed with an Octet RED96 equipped with streptavidin (SA) biosensor tips (ForteBio, Menlo Park, Calif.) at 27° C. The ratio of the on-rates/binding signals in buffer and whole blood were reported. A ratio <2 was considered to show no interference.

human BAFF [9] = target: T1, human BAFF; assay: as above
Experimental: as §3

[10] = target: membrane-bound human BAFF on fixed CHO-K1 cells (human, UniProt Q9Y275 1-285); assay: cell-based or functional assay
[11] = target: Recombinant human BAFF 60mer (Boehringer Ingelheim Pharmaceuticals, Inc.) (human, UniProt Q9Y275 134-285, limits assumed); assay: cell-based or functional assay
Recombinant human IL-23 [12] = target: T5, Recombinant human IL-23; assay: cell-based or functional assay; remark: listed apart in the source
cynomolgus IL-23 [13] = target: T3, cynomolgus IL-23; assay: cell-based or functional assay
[14] = target: T6, Recombinant human BAFF trimer …; assay: cell-based or functional assay; remark: listed apart in the source

IC50, 3H-thymidine incorporation, primary human B cells stimulated with anti-IgM and hBAFF (human BAFF [1]): 0.0337 nM
IC50 Geomean, NFkB luciferase reporter, human BAFFR-CHO cells [2]: 0.132 nM
IC90 Geomean, NFkB luciferase reporter, human BAFFR-CHO cells [2]: 0.295 nM
Kd (cynomolgus BAFF): < 0.015 nM
Kd (cynomolgus IL-23 [3]): < 0.015 nM
Kd [4]: < 0.015 nM
Kd (human BAFF [5]): < 0.015 nM
IC50, STAT3-luciferase reporter in DB lymphoblast B cells (Recombinant human IL-23 [6]): 0.161 nM
IC90, STAT3-luciferase reporter in DB lymphoblast B cells (Recombinant human IL-23 [6]): 1.1 nM
IC50 Geomean, NFkB luciferase reporter, human TACI-CHO cells [7]: 0.159 nM
IC90 Geomean, NFkB luciferase reporter, human TACI-CHO cells [7]: 0.51 nM
Ratio of binding signal in WB/kinetic buffer (Recombinant human IL-23 [8]): 1.5
Ratio of binding signal in WB/kinetic buffer (human BAFF [9]): 1.2
IC50, NFkB luciferase reporter, human BAFFR-CHO cells stimulated with fixed human BAFF CHO-K1 cells [10]: 0.125 nM
IC90, NFkB luciferase reporter, human BAFFR-CHO cells stimulated with fixed human BAFF CHO-K1 cells [10]: 1.14 nM
IC50, NFkB luciferase reporter, human BAFFR-CHO cells [11]: 0.006 nM
IC90, NFkB luciferase reporter, human BAFFR-CHO cells [11]: 0.017 nM
IC50, IL-23-induced mouse IL-17 release from mouse splenocytes (Recombinant human IL-23 [12]): 0.202 nM
IC90, IL-23-induced mouse IL-17 release from mouse splenocytes (Recombinant human IL-23 [12]): 1.36 nM
IC50, IL-23-induced mouse IL-17 release from mouse splenocytes (cynomolgus IL-23 [13]): 0.2 nM
IC90, IL-23-induced mouse IL-17 release from mouse splenocytes (cynomolgus IL-23 [13]): 1.48 nM
IC50, NFkB luciferase reporter, human BAFFR-CHO cells [14]: 0.039 nM
IC90, NFkB luciferase reporter, human BAFFR-CHO cells [14]: 0.256 nM
B1: Compound B (bispecific antibody, human IgG4 S228P, kappa)
chain 1: DIQMTQSPSSLSASVGDRVTITCKASRDVAIAVAWYQQKPGKVPKLLIYWASTRHTGVPSRFSGSGSRTDFTLTISSLQPEDVADYFCHQYSSYPFTFGSGTKLEIKGGGSGGGGQVQLVQSGAEVKKPGASVKVSCKASGYSFSTFFIHWVRQAPGQGLEWIGRIDPNSGATKYNEKFESRVTMTRDTSISTAYMELSRLRSDDTAVYYCARGEDLLIRTDALDYWGQGTSVTVSSLGGGSGASTKGPSVFPLAPCSRSTSESTAALGCLVKDYFPEPVTVSWNSGALTSGVHTFPAVLQSSGLYSLSSVVTVPSSSLGTKTYTCNVDHKPSNTKVDKRVESKYGPPCPPCPAPEFLGGPSVFLFPPKPKDTLYITREPEVTCVVVDVSQEDPEVQFNWYVDGVEVHNAKTKPREEQFNSTYRVVSVLTVLHQDWLNGKEYKCKVSNKGLPSSIEKTISKAKGQPREPQVYTLPPSQEEMTKNQVSLTCLVKGFYPSDIAVEWESNGQPENNYKTTPPVLDSDGSFFLYSRLTVDKSRWQEGNVFSCSVMHEALHNHYTQKSLSLSLG
chain 2: DIQMTQSPSSLSASVGDRVSITCKASQNAGIDVAWFQQKPGKAPKLLIYSKSNRYTGVPSRFSGSGSGTDFTLTISSLQPEDFATYYCLQYRSYPRTFGQGTKLEIKGGGSGGGGQVQLVQSGAEVKKPGSSVKVSCKASGYTFTDQTIHWMRQAPGQGLEWIGYIYPRDDSPKYNENFKGKVTITADKSTSTAYMELSSLRSEDTAVYYCAIPDRSGYAWFIYWGQGTLVTVSSLGGGSGRTVAAPSVFIFPPSDEQLKSGTASVVCLLNNFYPREAKVQWKVDNALQSGNSQESVTEQDSKDSTYSLSSTLTLSKADYEKHKVYACEVTHQGLSSPVTKSFNRGEC
notes: Large chain: IL23A(1) VL - BAFF(7) VH - LGGGSG - IgG4-Pro-YTE constant domain; small chain: BAFF(7) VL - IL23A(1) VH - LGGGSG - CL; Tetravalent format

Reference: US20210107998A1 (Boehringer Ingelheim, published 2021)
